Laboratory results: patent US20140378663A1
Each block holds one substance with its values, some of them ahead of it.

Assays:
[1] = molecular target: FcRn-p3 (fusion protein of β2 microglobulin chain and FcRn α-chain fused to bacteriophage protein p3 and CVDE protein) (UniProt P61769); assay: ELISA, purified IgG from YB2/0, vs R603 IgG-WT
[2] = molecular target: FcγRIIaH131 (PX Therapeutics, His-tagged) (human) (UniProt P12318); assay: ELISA, purified IgG from YB2/0, vs R603 IgG-WT
[3] = molecular target: FcγRIIIaV158 (R&D system) (human) (UniProt P08637); assay: ELISA, purified IgG from YB2/0, vs R603 IgG-WT
[4] = molecular target: FcγRIIaR131 (R&D system) (human) (UniProt P12318); assay: ELISA, purified IgG from YB2/0, vs R603 IgG-WT
[5] = molecular target: FcγRIIIaF158 (PX Therapeutics, His-tagged) (human) (UniProt P08637); assay: ELISA, purified IgG from YB2/0, vs R603 IgG-WT
[6] = molecular target: FcγRI (R&D system) (human) (UniProt P12314); assay: ELISA, purified IgG from YB2/0, vs R603 IgG-WT
[7] = molecular target: FcγRIIb (R&D system) (human) (UniProt P31994); assay: ELISA, purified IgG from YB2/0, vs R603 IgG-WT
[8] = molecular target: Recombinant soluble human FcRn (human) (UniProt P55899); assay: SPR (BIAcore X100), FcRn immobilised, pH 6.0
[9] = molecular target: FcRn-p3 (fusion protein of β2 microglobulin chain and FcRn α-chain fused to bacteriophage protein p3 and CVDE protein) (UniProt P61769); assay: ELISA, purified IgG from YB2/0, vs parent R603-259I/315D/434Y
[10] = molecular target: FcγRIIaH131 (PX Therapeutics, His-tagged) (human) (UniProt P12318); assay: as above
[11] = molecular target: FcγRIIIaV158 (R&D system) (human) (UniProt P08637); assay: as above
[12] = molecular target: FcγRIIaR131 (R&D system) (human) (UniProt P12318); assay: as above
[13] = molecular target: FcγRIIIaF158 (PX Therapeutics, His-tagged) (human) (UniProt P08637); assay: as above
[14] = molecular target: FcγRI (R&D system) (human) (UniProt P12314); assay: as above
[15] = molecular target: FcγRIIb (R&D system) (human) (UniProt P31994); assay: as above
[16] = molecular target: FcRn-p3 (fusion protein of β2 microglobulin chain and FcRn α-chain fused to bacteriophage protein p3 and CVDE protein) (UniProt P61769); assay: ELISA, 293-F supernatant, vs parent 259I/315D/434Y
[17] = molecular target: FcγRIIIaV158 (R&D system) (human) (UniProt P08637); assay: ELISA, 293-F supernatant, vs parent 259I/315D/434Y
[18] = molecular target: C1q complement (Calbiochem) (UniProt P02745); assay: ELISA, 293-F supernatant, vs parent 259I/315D/434Y
[19] = molecular target: FcγRIIaR131 (R&D system) (human) (UniProt P12318); assay: ELISA, 293-F supernatant, vs parent 259I/315D/434Y
[20] = molecular target: FcγRI (R&D system) (human) (UniProt P12314); assay: ELISA, 293-F supernatant, vs parent 259I/315D/434Y
[21] = molecular target: FcγRIIb (R&D system) (human) (UniProt P31994); assay: ELISA, 293-F supernatant, vs parent 259I/315D/434Y
[22] = molecular target: T1, CD20 antigen on Raji lymphoblastoid B cells (UniProt P11836); assay: flow cytometry on Raji cells
T1 sequence (looked up): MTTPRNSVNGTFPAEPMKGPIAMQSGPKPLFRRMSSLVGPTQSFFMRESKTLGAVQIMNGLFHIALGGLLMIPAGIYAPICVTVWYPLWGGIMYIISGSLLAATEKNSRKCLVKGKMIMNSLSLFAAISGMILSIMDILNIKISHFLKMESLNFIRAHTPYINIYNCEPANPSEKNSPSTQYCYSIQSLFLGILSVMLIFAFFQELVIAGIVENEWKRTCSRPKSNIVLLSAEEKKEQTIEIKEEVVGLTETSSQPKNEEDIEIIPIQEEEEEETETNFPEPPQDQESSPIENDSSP

[23] = molecular target: Recombinant soluble human FcRn (human) (UniProt P55899); assay: SPR, FcRn immobilised, pH 6.0; reference R603
[24] = molecular target: FcRn-p3 (fusion protein of β2 microglobulin chain and FcRn α-chain fused to bacteriophage protein p3 and CVDE protein) (UniProt P61769); assay: ELISA, 293-F supernatant, vs R603 IgG-WT
[25] = molecular target: FcγRIIIaV158 (R&D system) (human) (UniProt P08637); assay: ELISA, 293-F supernatant, vs R603 IgG-WT
[26] = molecular target: C1q complement (Calbiochem) (UniProt P02745); assay: ELISA, 293-F supernatant, vs R603 IgG-WT
[27] = molecular target: FcγRIIaR131 (R&D system) (human) (UniProt P12318); assay: ELISA, 293-F supernatant, vs R603 IgG-WT
[28] = molecular target: FcγRI (R&D system) (human) (UniProt P12314); assay: ELISA, 293-F supernatant, vs R603 IgG-WT
[29] = molecular target: FcγRIIb (R&D system) (human) (UniProt P31994); assay: ELISA, 293-F supernatant, vs R603 IgG-WT
[30] = molecular target: FcRn-p3 (fusion protein of β2 microglobulin chain and FcRn α-chain fused to bacteriophage protein p3 and CVDE protein) (UniProt P61769); assay: ELISA, purified IgG from YB2/0, vs R593 IgG-WT
[31] = molecular target: FcγRIIaH131 (PX Therapeutics, His-tagged) (human) (UniProt P12318); assay: ELISA, purified IgG from YB2/0, vs R593 IgG-WT
[32] = molecular target: FcγRIIIaV158 (R&D system) (human) (UniProt P08637); assay: ELISA, purified IgG from YB2/0, vs R593 IgG-WT
[33] = molecular target: FcγRIIaR131 (R&D system) (human) (UniProt P12318); assay: ELISA, purified IgG from YB2/0, vs R593 IgG-WT
[34] = molecular target: FcγRIIIaF158 (PX Therapeutics, His-tagged) (human) (UniProt P08637); assay: ELISA, purified IgG from YB2/0, vs R593 IgG-WT
[35] = molecular target: FcγRI (R&D system) (human) (UniProt P12314); assay: ELISA, purified IgG from YB2/0, vs R593 IgG-WT
[36] = molecular target: FcγRIIb (R&D system) (human) (UniProt P31994); assay: ELISA, purified IgG from YB2/0, vs R593 IgG-WT
Fcγ receptors = assay: cell-based or functional assay
[37] = molecular target: Recombinant soluble human FcRn (human) (UniProt P55899); assay: SPR, FcRn immobilised, pH 6.0; reference R593
[38] = molecular target: FcRn-p3 (fusion protein of β2 microglobulin chain and FcRn α-chain fused to bacteriophage protein p3 and CVDE protein) (UniProt P61769); assay: ELISA, purified IgG from YB2/0, vs parent R593-259I/315D/434Y
[39] = molecular target: FcγRIIaH131 (PX Therapeutics, His-tagged) (human) (UniProt P12318); assay: as above
[40] = molecular target: FcγRIIIaV158 (R&D system) (human) (UniProt P08637); assay: as above
[41] = molecular target: FcγRIIaR131 (R&D system) (human) (UniProt P12318); assay: as above
[42] = molecular target: FcγRIIIaF158 (PX Therapeutics, His-tagged) (human) (UniProt P08637); assay: as above
[43] = molecular target: FcγRI (R&D system) (human) (UniProt P12314); assay: as above
[44] = molecular target: FcγRIIb (R&D system) (human) (UniProt P31994); assay: as above
[45] = molecular target: RhD antigen on RhD+ red blood cells (UniProt Q02161); assay: flow cytometry on RhD+ red blood cells
[46] = molecular target: FcRn-p3 (fusion protein of β2 microglobulin chain and FcRn α-chain fused to bacteriophage protein p3 and CVDE protein) (UniProt P61769); assay: ELISA, purified IgG from YB2/0, vs parent R593-256N/378V/383N/434Y
[47] = molecular target: FcγRIIaH131 (PX Therapeutics, His-tagged) (human) (UniProt P12318); assay: as above
[48] = molecular target: FcγRIIIaV158 (R&D system) (human) (UniProt P08637); assay: as above
[49] = molecular target: FcγRIIaR131 (R&D system) (human) (UniProt P12318); assay: as above
[50] = molecular target: FcγRIIIaF158 (PX Therapeutics, His-tagged) (human) (UniProt P08637); assay: as above
[51] = molecular target: FcγRI (R&D system) (human) (UniProt P12314); assay: as above
[52] = molecular target: FcγRIIb (R&D system) (human) (UniProt P31994); assay: as above

FcγRIIb (R&D system) (human), sequence (P31994 46-217 limits assumed): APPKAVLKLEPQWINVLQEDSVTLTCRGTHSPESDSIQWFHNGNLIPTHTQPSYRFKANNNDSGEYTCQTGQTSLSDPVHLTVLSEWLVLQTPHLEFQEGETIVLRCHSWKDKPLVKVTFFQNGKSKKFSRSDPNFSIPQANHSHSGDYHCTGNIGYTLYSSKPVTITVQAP
FcγRIIIaF158 (PX Therapeutics, His-tagged) (human), sequence (P08637 17-208 limits assumed): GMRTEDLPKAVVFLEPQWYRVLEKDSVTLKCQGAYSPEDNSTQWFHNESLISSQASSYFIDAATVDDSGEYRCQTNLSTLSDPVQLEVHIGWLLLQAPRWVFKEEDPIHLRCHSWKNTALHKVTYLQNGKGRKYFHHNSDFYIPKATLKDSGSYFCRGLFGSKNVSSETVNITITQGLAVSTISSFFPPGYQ
FcγRIIaR131 (R&D system) (human), sequence (P12318 36-218 H167R limits assumed): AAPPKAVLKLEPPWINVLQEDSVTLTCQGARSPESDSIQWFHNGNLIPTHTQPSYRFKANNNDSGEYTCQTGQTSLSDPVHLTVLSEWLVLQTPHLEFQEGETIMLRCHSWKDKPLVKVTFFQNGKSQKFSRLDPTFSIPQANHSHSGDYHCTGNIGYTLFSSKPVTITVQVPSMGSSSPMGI
FcγRIIIaV158 (R&D system) (human), sequence (P08637 17-208 F176V limits assumed): as the sequence (P08637 17-208 limits assumed) above, with F160V counted along it
FcγRI (R&D system) (human), sequence (P12314 16-288 limits assumed): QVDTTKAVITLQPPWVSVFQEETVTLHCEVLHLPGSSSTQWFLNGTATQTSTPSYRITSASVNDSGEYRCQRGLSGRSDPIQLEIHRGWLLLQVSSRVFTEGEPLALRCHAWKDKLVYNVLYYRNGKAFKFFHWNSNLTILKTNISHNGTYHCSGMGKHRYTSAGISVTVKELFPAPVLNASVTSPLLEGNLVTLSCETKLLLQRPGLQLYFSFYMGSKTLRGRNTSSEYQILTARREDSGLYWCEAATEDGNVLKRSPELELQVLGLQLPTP
FcγRIIaH131 (PX Therapeutics, His-tagged) (human), sequence (P12318 34-217 limits assumed): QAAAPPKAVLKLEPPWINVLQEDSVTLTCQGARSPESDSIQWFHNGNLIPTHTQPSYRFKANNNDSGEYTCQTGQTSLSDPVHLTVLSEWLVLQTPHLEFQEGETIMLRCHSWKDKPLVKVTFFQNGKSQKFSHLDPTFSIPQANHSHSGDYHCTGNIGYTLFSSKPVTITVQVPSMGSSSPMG
RhD antigen on RhD+ red blood cells, sequence (Q02161 2-417 limits assumed): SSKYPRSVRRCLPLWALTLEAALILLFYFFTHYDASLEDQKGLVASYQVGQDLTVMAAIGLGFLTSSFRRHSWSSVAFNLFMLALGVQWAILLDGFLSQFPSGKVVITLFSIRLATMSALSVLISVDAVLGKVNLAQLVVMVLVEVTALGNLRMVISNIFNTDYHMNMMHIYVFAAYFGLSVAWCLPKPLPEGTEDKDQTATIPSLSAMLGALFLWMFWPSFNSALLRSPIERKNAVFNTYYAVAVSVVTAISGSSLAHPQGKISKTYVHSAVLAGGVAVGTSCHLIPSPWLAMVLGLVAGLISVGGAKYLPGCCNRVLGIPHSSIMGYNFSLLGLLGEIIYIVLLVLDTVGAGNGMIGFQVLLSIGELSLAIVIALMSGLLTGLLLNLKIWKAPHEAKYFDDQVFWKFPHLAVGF
C1q complement (Calbiochem), sequence (P02745 23-245, chain 1 of 3): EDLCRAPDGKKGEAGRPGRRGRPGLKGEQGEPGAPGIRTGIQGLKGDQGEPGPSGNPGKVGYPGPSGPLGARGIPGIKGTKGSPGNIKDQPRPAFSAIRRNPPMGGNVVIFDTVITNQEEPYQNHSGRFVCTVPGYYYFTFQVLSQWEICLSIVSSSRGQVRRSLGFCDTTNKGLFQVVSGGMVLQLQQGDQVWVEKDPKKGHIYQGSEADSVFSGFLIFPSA
C1q complement (Calbiochem), sequence (P02746 28-253, chain 2 of 3, further chain): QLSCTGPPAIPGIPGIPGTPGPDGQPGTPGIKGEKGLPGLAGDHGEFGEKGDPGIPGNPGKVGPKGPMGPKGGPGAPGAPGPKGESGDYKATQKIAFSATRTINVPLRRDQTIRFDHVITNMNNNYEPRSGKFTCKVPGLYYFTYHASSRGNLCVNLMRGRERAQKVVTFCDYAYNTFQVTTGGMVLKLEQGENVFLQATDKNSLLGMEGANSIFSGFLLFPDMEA
C1q complement (Calbiochem), sequence (P02747 29-245, chain 3 of 3, further chain): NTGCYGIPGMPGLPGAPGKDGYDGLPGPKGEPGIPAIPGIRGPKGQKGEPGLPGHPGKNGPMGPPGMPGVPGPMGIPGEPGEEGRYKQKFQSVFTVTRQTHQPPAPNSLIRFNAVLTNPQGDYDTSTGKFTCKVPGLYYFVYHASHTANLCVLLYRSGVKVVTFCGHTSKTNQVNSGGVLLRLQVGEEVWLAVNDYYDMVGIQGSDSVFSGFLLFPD

Ratio/IgG-WT [1]: 5.97
Ratio/IgG-WT [2]: 0.08
Ratio/IgG-WT [3]: 0.05
Ratio/IgG-WT [4]: 0.07
Ratio/IgG-WT [5]: 0.08
Ratio/IgG-WT [6]: 0.1
Ratio/IgG-WT [7]: 0.41
Kd [8]: 28 nM
ratio to the IgG1 without 294Del [9]: 0.86
ratio to the IgG1 without 294Del [10]: 0.08
ratio to the IgG1 without 294Del [11]: 0.05
ratio to the IgG1 without 294Del [12]: 0.06
ratio to the IgG1 without 294Del [13]: 0.07
ratio to the IgG1 without 294Del [14]: 0.09
ratio to the IgG1 without 294Del [15]: 0.27
ratio to the IgG1 without 294Del [16]: 0.66
ratio to the IgG1 without 294Del [17]: 0.02
ratio to the IgG1 without 294Del [18]: 0.1
ratio to the IgG1 without 294Del [19]: 0.01
ratio to the IgG1 without 294Del [20]: 0.41
ratio to the IgG1 without 294Del [21]: 0.01
Ag binding MFI (Arbitrary Unit) [22]: 96
Ratio WT/IgG (KD) [23]: 3.54
Ratio/IgG-WT [24]: 2.87
Ratio/IgG-WT [25]: 0.02
Ratio/IgG-WT [26]: 0.13
Ratio/IgG-WT [27]: 0.01
Ratio/IgG-WT [28]: 0.34
Ratio/IgG-WT [29]: 0.01
Substance: R603 anti-CD20 IgG1 variant 259I/294Del/315D/434Y (antibody)

Ratio/IgG-WT [30]: 7.19
Ratio/IgG-WT [31]: 0.1
Ratio/IgG-WT [32]: 0.07
Ratio/IgG-WT [33]: 0.12
Ratio/IgG-WT [34]: 0.07
Ratio/IgG-WT [35]: 0.13
Ratio/IgG-WT [36]: 0.18
ADCC EC50 (ng/ml), lysis of RhD+ red cells (Fcγ receptors): 75.9 ng/mL
ADCC Max. Lysis (%) (Fcγ receptors): 4%
Kd [8]: 20.2 nM
Ratio WT/IgG (KD) [37]: 9.41
ratio to the IgG1 without 294Del [38]: 0.91
ratio to the IgG1 without 294Del [39]: 0.11
ratio to the IgG1 without 294Del [40]: 0.07
ratio to the IgG1 without 294Del [41]: 0.11
ratio to the IgG1 without 294Del [42]: 0.07
ratio to the IgG1 without 294Del [43]: 0.12
ratio to the IgG1 without 294Del [44]: 0.13
Ag binding MFI (Arbitrary Unit) [45]: 47.9
Substance: R593 anti-RhD+ IgG1 variant 259I/294Del/315D/434Y (antibody)

Ratio/IgG-WT [30]: 7.48
Ratio/IgG-WT [31]: 0.17
Ratio/IgG-WT [32]: 0.1
Ratio/IgG-WT [33]: 0.17
Ratio/IgG-WT [34]: 0.1
Ratio/IgG-WT [35]: 0.12
Ratio/IgG-WT [36]: 0.27
ADCC EC50 (ng/ml), lysis of RhD+ red cells (Fcγ receptors): 75.9 ng/mL
ADCC Max. Lysis (%) (Fcγ receptors): 6%
Kd [8]: 4.23 nM
Ratio WT/IgG (KD) [37]: 44.9
ratio to the IgG1 without 294Del [46]: 1
ratio to the IgG1 without 294Del [47]: 0.17
ratio to the IgG1 without 294Del [48]: 0.1
ratio to the IgG1 without 294Del [49]: 0.16
ratio to the IgG1 without 294Del [50]: 0.11
ratio to the IgG1 without 294Del [51]: 0.05
ratio to the IgG1 without 294Del [52]: 0.17
Ag binding MFI (Arbitrary Unit) [45]: 44.7
Substance: R593 anti-RhD+ IgG1 variant 256N/294Del/378V/383N/434Y (antibody)
